Measurements published in US20200024322A1 (Eli Lilly, published 2020).
Changes are numbered by the printed parent chain. Numbered stars: 1 amine (or outer) side, 2 acyl side, 3 side chain; on linkers, the order of the positions; unused ones are H or OH. Square brackets hold non-standard residues; d marks the D form. Side chains are listed from the residue outwards. Ends that are not written are not given here. * marks the point of attachment. C20 diacid = O=C(O)CCCCCCCCCCCCCCCCCCC(=O)*; γGlu = O=C(O)[C@H](CCC(=O)[*:2])N[*:1]; AEEA = NCCOCCOCC(=O)O; Aib = CC(C)(N)C(=O)O

T1: human GIP receptor (human, UniProt P48546 22-466)
T1 construct: whole, on cells; Used as crude membranes of stably transfected CHO cells; also called hGIPR
T1 sequence (looked up): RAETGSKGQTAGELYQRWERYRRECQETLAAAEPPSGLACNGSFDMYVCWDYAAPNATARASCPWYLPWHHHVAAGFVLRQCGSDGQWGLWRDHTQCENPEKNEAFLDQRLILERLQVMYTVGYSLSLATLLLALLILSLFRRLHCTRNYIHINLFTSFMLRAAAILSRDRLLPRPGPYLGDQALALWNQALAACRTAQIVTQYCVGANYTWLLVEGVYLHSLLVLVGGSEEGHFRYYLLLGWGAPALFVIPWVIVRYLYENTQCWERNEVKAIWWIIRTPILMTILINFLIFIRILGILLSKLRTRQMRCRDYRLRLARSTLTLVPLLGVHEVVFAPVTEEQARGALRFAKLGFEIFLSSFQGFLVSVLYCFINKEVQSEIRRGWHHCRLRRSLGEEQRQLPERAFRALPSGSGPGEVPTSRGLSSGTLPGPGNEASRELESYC

B1: Example 1 (peptide)
peptide: YXEGTXTSDYSIXLDEKAQXEFIXYLIEGGPSSGAPPPS
modifications: Aib2; αMeF(2F)6; αMeL13; K17((2-[2-(2-Amino-ethoxy)-ethoxy]-acetyl)2-(γ-Glu)-CO-(CH2)18-CO2H); Aib20; D-Glu24; C-terminal NH2
B2: Example 211 (peptide)
peptide: B1 peptide with E16K
modifications: Aib2; αMeF(2F)6; αMeL13; K17((2-[2-(2-Amino-ethoxy)-ethoxy]-acetyl)-(γ-Glu)-(2-[2-(2-Amino-ethoxy)-ethoxy]-acetyl)-CO-(CH2)18-CO2H); Aib20; D-Glu24; C-terminal NH2
B3: Example 191 (peptide)
peptide: B1 peptide with Y10V
modifications: Aib2; αMeF(2F)6; αMeL13; K17((2-[2-(2-Amino-ethoxy)-ethoxy]-acetyl)2-(γ-Glu)-CO-(CH2)18-CO2H); Aib20; D-Glu24; C-terminal NH2
B4: Example 183 (peptide)
peptide: B1 peptide with Y10L
modifications: not printed (the compound name of this Example is missing from the table of Examples 6-287)
B5: Example 48 (peptide)
peptide: Y[Aib]EGTFTSDYSILLDKIAQ[Aib]AFIEYLIEGGPSSGAPPPK([AEEA-AEEA-γGlu-C20 diacid])-NH2
modifications: N-terminus assumed
SMILES: CC[C@H](C)[C@H](NC(=O)[C@H](CCCCN)NC(=O)[C@H](CC(=O)O)NC(=O)[C@H](CC(C)C)NC(=O)[C@H](CC(C)C)NC(=O)[C@@H](NC(=O)[C@H](CO)NC(=O)[C@H](Cc1ccc(O)cc1)NC(=O)[C@H](CC(=O)O)NC(=O)[C@H](CO)NC(=O)[C@@H](NC(=O)[C@H](Cc1ccccc1)NC(=O)[C@@H](NC(=O)CNC(=O)[C@H](CCC(=O)O)NC(=O)C(C)(C)NC(=O)[C@@H](N)Cc1ccc(O)cc1)[C@@H](C)O)[C@@H](C)O)[C@@H](C)CC)C(=O)N[C@@H](C)C(=O)N[C@@H](CCC(N)=O)C(=O)NC(C)(C)C(=O)N[C@@H](C)C(=O)N[C@@H](Cc1ccccc1)C(=O)N[C@H](C(=O)N[C@@H](CCC(=O)O)C(=O)N[C@@H](Cc1ccc(O)cc1)C(=O)N[C@@H](CC(C)C)C(=O)N[C@H](C(=O)N[C@@H](CCC(=O)O)C(=O)NCC(=O)NCC(=O)N1CCC[C@H]1C(=O)N[C@@H](CO)C(=O)N[C@@H](CO)C(=O)NCC(=O)N[C@@H](C)C(=O)N1CCC[C@H]1C(=O)N1CCC[C@H]1C(=O)N1CCC[C@H]1C(=O)N[C@@H](CCCCNC(=O)COCCOCCNC(=O)COCCOCCNC(=O)CC[C@H](NC(=O)CCCCCCCCCCCCCCCCCCC(=O)O)C(=O)O)C(N)=O)[C@@H](C)CC)[C@@H](C)CC
B6: Example 58 (peptide)
peptide: Y[Aib]EGTFTSDYSSLLDKK([AEEA-AEEA-γGlu-C20 diacid])AQ[Aib]AFIEYLIEGGPSSGAPPPS-NH2
modifications: N-terminus assumed
SMILES: CC[C@H](C)[C@H](NC(=O)[C@H](CC(C)C)NC(=O)[C@H](Cc1ccc(O)cc1)NC(=O)[C@H](CCC(=O)O)NC(=O)[C@@H](NC(=O)[C@H](Cc1ccccc1)NC(=O)[C@H](C)NC(=O)C(C)(C)NC(=O)[C@H](CCC(N)=O)NC(=O)[C@H](C)NC(=O)[C@H](CCCCNC(=O)COCCOCCNC(=O)COCCOCCNC(=O)CC[C@H](NC(=O)CCCCCCCCCCCCCCCCCCC(=O)O)C(=O)O)NC(=O)[C@H](CCCCN)NC(=O)[C@H](CC(=O)O)NC(=O)[C@H](CC(C)C)NC(=O)[C@H](CC(C)C)NC(=O)[C@H](CO)NC(=O)[C@H](CO)NC(=O)[C@H](Cc1ccc(O)cc1)NC(=O)[C@H](CC(=O)O)NC(=O)[C@H](CO)NC(=O)[C@@H](NC(=O)[C@H](Cc1ccccc1)NC(=O)[C@@H](NC(=O)CNC(=O)[C@H](CCC(=O)O)NC(=O)C(C)(C)NC(=O)[C@@H](N)Cc1ccc(O)cc1)[C@@H](C)O)[C@@H](C)O)[C@@H](C)CC)C(=O)N[C@@H](CCC(=O)O)C(=O)NCC(=O)NCC(=O)N1CCC[C@H]1C(=O)N[C@@H](CO)C(=O)N[C@@H](CO)C(=O)NCC(=O)N[C@@H](C)C(=O)N1CCC[C@H]1C(=O)N1CCC[C@H]1C(=O)N1CCC[C@H]1C(=O)N[C@@H](CO)C(N)=O
B7: Example 90 (peptide)
peptide: Y[Aib]NGTFTSDYSILLDKK([AEEA-AEEA-γGlu-C20 diacid])AQ[Aib]AFIEYLIEGGPSSGAPPPS-NH2
modifications: N-terminus assumed
SMILES: CC[C@H](C)[C@H](NC(=O)[C@H](CC(C)C)NC(=O)[C@H](Cc1ccc(O)cc1)NC(=O)[C@H](CCC(=O)O)NC(=O)[C@@H](NC(=O)[C@H](Cc1ccccc1)NC(=O)[C@H](C)NC(=O)C(C)(C)NC(=O)[C@H](CCC(N)=O)NC(=O)[C@H](C)NC(=O)[C@H](CCCCNC(=O)COCCOCCNC(=O)COCCOCCNC(=O)CC[C@H](NC(=O)CCCCCCCCCCCCCCCCCCC(=O)O)C(=O)O)NC(=O)[C@H](CCCCN)NC(=O)[C@H](CC(=O)O)NC(=O)[C@H](CC(C)C)NC(=O)[C@H](CC(C)C)NC(=O)[C@@H](NC(=O)[C@H](CO)NC(=O)[C@H](Cc1ccc(O)cc1)NC(=O)[C@H](CC(=O)O)NC(=O)[C@H](CO)NC(=O)[C@@H](NC(=O)[C@H](Cc1ccccc1)NC(=O)[C@@H](NC(=O)CNC(=O)[C@H](CC(N)=O)NC(=O)C(C)(C)NC(=O)[C@@H](N)Cc1ccc(O)cc1)[C@@H](C)O)[C@@H](C)O)[C@@H](C)CC)[C@@H](C)CC)C(=O)N[C@@H](CCC(=O)O)C(=O)NCC(=O)NCC(=O)N1CCC[C@H]1C(=O)N[C@@H](CO)C(=O)N[C@@H](CO)C(=O)NCC(=O)N[C@@H](C)C(=O)N1CCC[C@H]1C(=O)N1CCC[C@H]1C(=O)N1CCC[C@H]1C(=O)N[C@@H](CO)C(N)=O
B8: Example 108 (peptide)
peptide: YXEGTFTSDYSILLDKKAQXAFIEYLIEGGPSSGAPPPS
modifications: Aib2; K17((2-[2-(2-Amino-ethoxy)-ethoxy]-acetyl)-AOC-(γ-Glu)-CO-(CH2)18-CO2H); Aib20; C-terminal NH2
B9: Example 87 (peptide)
peptide: B8 peptide
modifications: αMePro2; K17((2-[2-(2-Amino-ethoxy)-ethoxy]-acetyl)2-(γ-Glu)-CO-(CH2)18-CO2H); Aib20; C-terminal NH2
B10: Example 135 (peptide)
peptide: H[Aib]NGTFTSDYSILLDKK([AEEA-AEEA-γGlu-C20 diacid])AQ[Aib]AFIEYLIEGGPSSGAPPPS-NH2
modifications: N-terminus assumed
SMILES: CC[C@H](C)[C@H](NC(=O)[C@H](CC(C)C)NC(=O)[C@H](Cc1ccc(O)cc1)NC(=O)[C@H](CCC(=O)O)NC(=O)[C@@H](NC(=O)[C@H](Cc1ccccc1)NC(=O)[C@H](C)NC(=O)C(C)(C)NC(=O)[C@H](CCC(N)=O)NC(=O)[C@H](C)NC(=O)[C@H](CCCCNC(=O)COCCOCCNC(=O)COCCOCCNC(=O)CC[C@H](NC(=O)CCCCCCCCCCCCCCCCCCC(=O)O)C(=O)O)NC(=O)[C@H](CCCCN)NC(=O)[C@H](CC(=O)O)NC(=O)[C@H](CC(C)C)NC(=O)[C@H](CC(C)C)NC(=O)[C@@H](NC(=O)[C@H](CO)NC(=O)[C@H](Cc1ccc(O)cc1)NC(=O)[C@H](CC(=O)O)NC(=O)[C@H](CO)NC(=O)[C@@H](NC(=O)[C@H](Cc1ccccc1)NC(=O)[C@@H](NC(=O)CNC(=O)[C@H](CC(N)=O)NC(=O)C(C)(C)NC(=O)[C@@H](N)Cc1c[nH]cn1)[C@@H](C)O)[C@@H](C)O)[C@@H](C)CC)[C@@H](C)CC)C(=O)N[C@@H](CCC(=O)O)C(=O)NCC(=O)NCC(=O)N1CCC[C@H]1C(=O)N[C@@H](CO)C(=O)N[C@@H](CO)C(=O)NCC(=O)N[C@@H](C)C(=O)N1CCC[C@H]1C(=O)N1CCC[C@H]1C(=O)N1CCC[C@H]1C(=O)N[C@@H](CO)C(N)=O
B11: Example 110 (peptide)
peptide: B8 peptide
modifications: Aib2; K17((2-[2-(2-Amino-ethoxy)-ethoxy]-acetyl)-(γ-Glu)-(Trx)-CO-(CH2)18-CO2H); Aib20; C-terminal NH2
B12: Example 109 (peptide)
peptide: B8 peptide
modifications: Aib2; K17(AOC-(2-[2-(2-Amino-ethoxy)-ethoxy]-acetyl)-(γ-Glu)-CO-(CH2)18-CO2H); Aib20; C-terminal NH2

Molecular target: T2, human glucagon receptor (human, UniProt P47871 26-477)
T2 construct: whole, on cells; Used as crude membranes of stably transfected HEK293 cells; also called hGcgR; hGLcgR
T2 sequence (P47871 26-477): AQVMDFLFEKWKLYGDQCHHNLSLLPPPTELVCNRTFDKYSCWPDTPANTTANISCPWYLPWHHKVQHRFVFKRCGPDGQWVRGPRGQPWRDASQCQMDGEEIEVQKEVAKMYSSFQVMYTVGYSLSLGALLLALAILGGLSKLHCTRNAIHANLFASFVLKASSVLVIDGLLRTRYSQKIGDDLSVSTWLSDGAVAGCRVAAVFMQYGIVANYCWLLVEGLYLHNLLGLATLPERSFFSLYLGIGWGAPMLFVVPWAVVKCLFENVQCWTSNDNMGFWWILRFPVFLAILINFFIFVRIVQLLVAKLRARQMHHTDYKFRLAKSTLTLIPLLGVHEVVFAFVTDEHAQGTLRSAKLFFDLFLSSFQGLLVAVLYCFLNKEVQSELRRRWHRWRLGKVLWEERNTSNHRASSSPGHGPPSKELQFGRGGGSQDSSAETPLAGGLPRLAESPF
Experiment: SPA, [125I]-Gcg displacement, hGcgR membranes

Binder | Ki
B1 | 207 nM
B2 | 131 nM
B3 | 348 nM
B4 | 304 nM
B5 | 111 nM
B6 | 339 nM
B7 | 245 nM
B8 | 171 nM
B9 | 278 nM
B10 | 454 nM
B11 | 73.9 nM
B12 | 43.1 nM

Molecular target: T3, human GLP-1 receptor (human, UniProt P43220 24-463)
T3 construct: whole, on cells; Used as crude membranes of stably transfected HEK293 cells; also called hGLP1R; hGLP-1R
Experiment: SPA, [125I]-GLP-1 displacement, hGLP-1R membranes

Binder | Ki
B1 | 6.67 nM
B2 | 2.64 nM
B3 | 4.52 nM
B4 | 4.11 nM
B5 | 15.7 nM
B6 | 2.77 nM
B7 | 4.76 nM
B8 | 3 nM
B9 | 1.79 nM
B10 | 3.01 nM
B11 | 4.38 nM
B12 | 1.34 nM

Molecular target: T1, human GIP receptor
Experiment: SPA, [125I]-GIP displacement, hGIPR membranes

Binder | Ki
B1 | 0.0546 nM
B2 | 0.0243 nM
B3 | 0.144 nM
B4 | 0.0869 nM
B5 | 0.074 nM
B6 | 0.105 nM
B7 | 0.0472 nM
B8 | 0.0732 nM
B9 | 0.034 nM
B10 | 0.161 nM
B11 | 0.0395 nM
B12 | 0.0279 nM
